Assay results taken from patent publication US20250263461A1.

Legend:
[1] = target: NY-ESO-1 and/or LAGE-1a peptide on HLA-A*02:01 (human); assay: surface plasmon resonance; biotinylated pMHC on streptavidin chip, soluble TCR 0 to 250 nM as analyte; 1:1 binding model; soluble, other
[2] = target: NY-ESO-1 and/or LAGE-1a peptide on HLA-A*02:01 (human); assay: surface plasmon resonance; biotinylated pMHC on streptavidin chip, soluble TCR as analyte; 1:1 binding model; soluble, other
[3] = target: NY-ESO-1 and/or LAGE-1a peptide on HLA-A*02:01 (human); assay: value quoted for comparison with 1G4LY; no measurement of 1G4 is described in this filing
[4] = target: pMHC1 complex: Biotin-HLA-A*02:01-… (SEQ ID NO: 1); assay: SPR, pMHC on streptavidin chip, soluble TCR as analyte, 1:1 binding model

Substance: 1G4LY TCR
- Kd [1]: 761 nM
- koff [2]: 0.0303 s⁻¹
- kon [2]: 39800 M⁻¹ s⁻¹

Substance: 1G4 TCR
- Kd [3]: 32000 nM

Substance: soluble 1G4LY TCR
- Kd [4]: 761 nM
- koff [4]: 0.0303 s⁻¹
- kon [4]: 39800 M⁻¹ s⁻¹
